Reference: PMC9273615, “Regulation of AUXIN RESPONSE FACTOR condensation and nucleo-cytoplasmic partitioning” (Nature Communications, 2022)

Assays:
[1] = molecular target: T1, GST-AFF1 (AUXIN RESPONSE FACTOR F-BOX1, At3g49150) (Arabidopsis thaliana, UniProt Q9M3B7 1-630); assay: pull-down; 2 μg GST fusion immobilised on glutathione agarose, mixed with 2 μg His-ASK1, 4 °C, 2 hr; six washes; immunoblot with anti-His and anti-GST; conditions: both partners purified
T1 construct: AUXIN RESPONSE FACTOR F-BOX1 (AFF1), F-box protein encoded by At3g49150, Arabidopsis thaliana; also called GST-AFF1 recombinant protein; not shown: GST, N-terminal, kept
T1 sequence (looked up): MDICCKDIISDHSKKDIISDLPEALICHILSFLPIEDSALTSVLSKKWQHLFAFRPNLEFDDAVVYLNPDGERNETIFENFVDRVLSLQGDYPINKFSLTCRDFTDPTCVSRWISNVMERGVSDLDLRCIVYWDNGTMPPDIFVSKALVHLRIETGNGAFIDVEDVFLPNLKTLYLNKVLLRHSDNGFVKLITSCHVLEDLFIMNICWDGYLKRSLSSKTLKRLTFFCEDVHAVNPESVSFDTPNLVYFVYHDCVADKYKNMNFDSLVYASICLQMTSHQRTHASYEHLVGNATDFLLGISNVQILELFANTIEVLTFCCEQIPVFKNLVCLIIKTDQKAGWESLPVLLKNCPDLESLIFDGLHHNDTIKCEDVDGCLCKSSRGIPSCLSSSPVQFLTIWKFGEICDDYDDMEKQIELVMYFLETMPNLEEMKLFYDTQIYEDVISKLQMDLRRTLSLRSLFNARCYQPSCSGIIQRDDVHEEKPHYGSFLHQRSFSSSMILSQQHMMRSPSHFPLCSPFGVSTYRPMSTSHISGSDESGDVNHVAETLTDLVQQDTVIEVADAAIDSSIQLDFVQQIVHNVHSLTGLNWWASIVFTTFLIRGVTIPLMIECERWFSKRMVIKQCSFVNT

[2] = molecular target: T2, GST-AFF1 (AUXIN RESPONSE FACTOR F-BOX1, At3g49150) (Arabidopsis thaliana (Mouse-ear cress), UniProt Q9M3B7); assay: GST pull-down with immunoblot
T2 chain: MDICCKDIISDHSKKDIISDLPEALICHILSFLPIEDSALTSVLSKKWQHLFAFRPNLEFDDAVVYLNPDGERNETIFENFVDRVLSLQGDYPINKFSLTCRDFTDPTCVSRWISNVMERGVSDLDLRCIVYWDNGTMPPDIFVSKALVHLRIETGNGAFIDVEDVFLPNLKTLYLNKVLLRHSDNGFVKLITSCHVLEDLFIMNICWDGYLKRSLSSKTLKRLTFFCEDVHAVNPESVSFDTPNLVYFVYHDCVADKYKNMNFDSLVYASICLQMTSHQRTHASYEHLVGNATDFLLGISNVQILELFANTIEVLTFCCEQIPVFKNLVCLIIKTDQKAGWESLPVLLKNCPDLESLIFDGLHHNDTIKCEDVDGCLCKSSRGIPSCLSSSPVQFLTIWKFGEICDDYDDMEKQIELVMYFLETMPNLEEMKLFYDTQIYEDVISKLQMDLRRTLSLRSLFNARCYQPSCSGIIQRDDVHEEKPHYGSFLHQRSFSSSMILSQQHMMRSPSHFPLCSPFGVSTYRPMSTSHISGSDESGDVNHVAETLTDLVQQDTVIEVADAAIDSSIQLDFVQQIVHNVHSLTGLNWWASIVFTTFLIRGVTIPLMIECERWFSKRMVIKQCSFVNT

binding result [1]: binds
binding result [2]: binds
B1: His-ASK1 (ARABIDOPSIS SKP1-LIKE 1) (natural protein, UniProt Q39255 1-160, looked up)
chain: MSAKKIVLKSSDGESFEVEEAVALESQTIAHMVEDDCVDNGVPLPNVTSKILAKVIEYCKRHVEAAASKAEAVEGAATSDDDLKAWDADFMKIDQATLFELILAANYLNIKNLLDLTCQTVADMIKGKTPEEIRTTFNIKNDFTPEEEEEVRRENQWAFE
notes: ARABIDOPSIS SKP1-LIKE (ASK1), Arabidopsis thaliana; not shown: His, N-terminal, kept
